This note sets out measurements from patent US7910100B2, “Antibodies directed to the mammalian EAG1 ion channel protein” (Max-Planck-Gesellschaft zur Forderung der Wissen, priority 2004, dated 2011).

In test [1] the target is T1, endogenous Eag1 antigen in MCF7 breast cancer and IPC-298 melanoma cells (Homo sapiens, UniProt O95259).
T1 construct: endogenous in cells; host or cells: MCF7 breast cancer cells, IPC-298 melanoma cells
T1 sequence (O95259 1-989): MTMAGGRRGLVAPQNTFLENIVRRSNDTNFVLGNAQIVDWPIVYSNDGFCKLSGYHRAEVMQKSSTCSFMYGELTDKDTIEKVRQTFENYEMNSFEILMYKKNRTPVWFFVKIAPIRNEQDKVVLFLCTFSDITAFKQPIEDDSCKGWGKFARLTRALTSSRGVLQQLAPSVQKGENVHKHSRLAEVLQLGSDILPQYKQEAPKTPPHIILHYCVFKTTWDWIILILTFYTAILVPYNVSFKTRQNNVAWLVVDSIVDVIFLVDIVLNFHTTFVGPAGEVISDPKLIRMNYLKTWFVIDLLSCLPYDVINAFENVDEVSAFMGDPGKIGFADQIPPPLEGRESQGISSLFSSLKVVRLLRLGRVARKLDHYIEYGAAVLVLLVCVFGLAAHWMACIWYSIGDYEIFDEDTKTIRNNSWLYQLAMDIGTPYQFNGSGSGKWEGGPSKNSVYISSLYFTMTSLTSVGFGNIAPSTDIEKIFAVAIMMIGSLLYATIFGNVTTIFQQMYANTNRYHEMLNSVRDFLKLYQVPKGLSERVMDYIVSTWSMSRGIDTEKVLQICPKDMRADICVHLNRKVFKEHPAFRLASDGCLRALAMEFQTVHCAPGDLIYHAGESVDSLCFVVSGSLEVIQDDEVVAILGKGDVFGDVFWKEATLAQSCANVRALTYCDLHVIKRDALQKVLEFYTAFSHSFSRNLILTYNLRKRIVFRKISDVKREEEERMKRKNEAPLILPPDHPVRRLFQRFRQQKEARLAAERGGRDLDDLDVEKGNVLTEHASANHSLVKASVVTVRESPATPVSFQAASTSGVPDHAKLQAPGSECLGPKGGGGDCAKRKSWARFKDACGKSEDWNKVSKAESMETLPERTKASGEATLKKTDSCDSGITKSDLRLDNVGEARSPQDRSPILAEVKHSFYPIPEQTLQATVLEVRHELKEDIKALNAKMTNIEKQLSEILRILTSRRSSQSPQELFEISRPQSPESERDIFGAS
The experiment in a line: Immunofluorescence detection of Eag1 antigen in human tumor cells. The test is classed as cell-based. To be noted: 2 μg/ml antibody. The protocol: For detection of Eag1 antigen in human tumor cells an Immunofluorescence staining protocol was established. Glass-Chamber slides (Falcon) were pre-coated with 300 μl medium containing 10% FCS at 37° C. for 30 min. 40 000 MCF7 breast cancer cells/well and 40 000 IPC-298 melanoma cells/well were seeded on pre-coated glass chamber slides and cultured at 37° C. in 5% CO2 for 24 h. After removing the chambers, slides were washed with PBS and cells were fixed with 4% Paraformaldehyd (in PBS adjusted to pH 7.5 with 1 M NaOH) at 25° C. for 10 min. Slides were air dried and re-hydrated with PBS for 3 min (3×). Cells were permeabilized with 0.5% Triton-X 100 in PBS for 10 min at 25° C., slides were washed for 3 min in PBS (3×) and each well was blocked with 100 μl blocking buffer (5% FCS, 2.5% BSA in PBS) at 25° C. for 1 hours. 2 μg/ml anti-EAG1 antibody ImAb 4 diluted in 40 μl blocking buffer/well was incubated for 1 h at 25° C., washed 3× with PBS and 50 μl Alexa 546 goat anti-mouse IgG (Molecular Probes; diluted 1:200 in dilution buffer) was incubated as detection antibody for 1 h at 25° C. Slides were washed with PBS (3×), 50 μl DAPI (Roche; diluted 1:1000 in PBS) was added to each well and incubated at 25° C. for 5 min. […]
Staining of the anti-EAG1 antigen with ImAb 4 was analysed using a Fluorescence microscope at 573 nm.

For another test, the system named is IPC-298 melanoma cells. Nature of the test: IPC-298 cell proliferation assay (AlamarBlue). Format: cell-based, human. The settings on record: 5 μg/ml antibody, 7 days, pre-incubation with 40 mM KCl. As to the method: In vitro experiments were conducted in order to determine the ability of the antibodies of the invention to inhibit cancer cell proliferation. 1000 IPC-298 cells were seeded in 60 μl/well 10% FCS-containing medium (DMEM […] glucose) on 96-well plates overnight. Cells were pre-incubated in quadruplicates with 5 μg/ml anti-Eag1 monoclonal antibodies, ImAb1 and ImAb3, diluted in FCS-containing medium with 40 mM KCl for 1 h at 37° C. in 5% CO2. Treatment of the cells with 40 mM KCl ensures an open conformation of the ion channel Eag1 and might accelerate binding of the monoclonal anti-EAG1 antibodies to its corresponding epitope. After 1 h incubation, supernatants were removed and replaced with 100 μl/well FCS-containing medium with 5 μg/ml anti-Eag1 antibodies, ImAb1 and ImAb3. Cells were then incubated at 37° C. in 5% CO2 for 7 days. In order to assess proliferation and cell viability 10 μl/well AlamarBlue™ (BIOSOURCE) was added and incubated at 37° C. in the dark. Absorbance was measured using a spectrofluorometer at 590 nm every 30 min.
(In general: Resazurin is reduced to fluorescent resorufin, in cell work by metabolically active cells.)

B1: ImAb4: mouse monoclonal anti-Eag1 antibody, IgG2b kappa; light chain SEQ ID NO: 2, heavy chain SEQ ID NO: 4 (antibody, listed as Mus musculus)
heavy: MRVLILLWLFTAFPGILSDVQLQESGPGLVKPSQSLSLTCTVTGYSITSDYAWNWIRQFPGNKLEWMGYISYSGSTIYNPSLKSRISITRDTSKNQFFLQLNSVTTEDTATYYCARFGNYGNTLNYWGQGTSVTVSSAKTTPPSVYPLAPGCGDTTGSSVTLGCLVKGYFPESVTVTWNSGSLSSSVHTFPALLQSGLYTMSSSVTVPSSTWPSQTVTCSVAHPASSTTVDKKLEPSGPISTINPCPPCKECHKCPAPNLEGGPSVFIFPPNIKDVLMISLTPKVTCVVVDVSEDDPDVQISWFVNNVEVHTAQTQTHREDYNSTIRVVSTLPIQHQDWMSGKEFKCKVNNKDLPSPIERTISKIKGLVRAPQVYILPPPAEQLSRKDVSLTCLVVGFNPGDISVEWTSNGHTEENYKDTAPVLDSDGSYFIYSKLNMKTSKWEKTDSFSCNVRHEGLKNYYLKKTISRSPGK
light: MKLPVRLLVLMFWIPASSSDVVMTQTPLSLPVSLGDQASISCRSSQSLVHSNGNTYLHWYLQKPGQSPKLLIYKVSNRFSGVPDRFSGSGSGTDFTLKISRVEAEDLGVYFCSQSTHVPPTFGGGTKLEIKRADAAPTVSIFPPSSEQLTSGGASVVCFLNNFYPKDINVKWKIDGSERQNGVLNSWTDQDSKDSTYSMSSTLTLTKDEYERHNSYTCEATHKTSTSPIVKSFNRNEC
Regarding B1, the “preferential binding by cell stage” value in test [1] was “preferentially binds to dividing human cancer cells”. In test [1] (fixed permeabilized cells), the “binding to endogenous Eag1 antigen” value is “binds to endogenous Eag1 antigen in human cancer cells”.

B2: ImAb1: mouse monoclonal anti-Eag1 antibody; VL SEQ ID NO: 43, VH SEQ ID NO: 44; binds C-terminus of Eag1 (antibody, listed as Mus musculus)
heavy: MNFGFSLIFLVLVLKGVQCEVKLVESGGGLVKPGGSLKLSCAASGFTFSNYAMSWVRQTPEKRLEWVASISSDGDTYFPDNVKGRFTISRENAGNILFLQMSSLRSEDTAMYYCARGFMITFWGQGTLVTVSAAKTTPPSVYPLAPGCGDTTGSSVTLGCLVKGYFPESVTVTWNSGSLSSSVHTFPALLQSGLYTMSSSVTVPSSTWPSQTVTCSVAHPASSTTVD
light: MDMRAPAQFFGILLLWFPGIRCDIKMTQSPSSMYASLGERVTITCKASQDIKSYLSWYQQKPWKSPKILIYYATSLADGVPSRISGSGSGQDYSLTISSLESDDTATYYCLQHGESPYTFGGGTKLEIKRADAAPTVSIFPPSSEQLTSGGASVVCFLNNFYPKDINVKWKIDGSERQNGVLNSWTDQDSKDSTYSMSSTLTLTKDEYERHNSYTCEATHKTSTSPIVKSFNRNEC
For the molecule B2, the “inhibition of cell proliferation” value in the test with IPC-298 melanoma cells was “inhibit human cancer cell growth”.
